The results in this text go back to paper PMC3394733, “Involvement of the Penta-EF-Hand Protein Pef1p in the Ca^2+-Dependent Regulation of COPII Subunit Assembly in Saccharomyces cerevisiae” (PLoS ONE, 2012).

To fix the notation:
B2: Sec13/31p complex (complex, S. cerevisiae)
chain 1: MVVIANAHNELIHDAVLDYYGKRLATCSSDKTIKIFEVEGETHKLIDTLTGHEGPVWRVDWAHPKFGTILASCSYDGKVLIWKEENGRWSQIAVHAVHSASVNSVQWAPHEYGPLLLVASSDGKVSVVEFKENGTTSPIIIDAHAIGVNSASWAPATIEEDGEHNGTKESRKFVTGGADNLVKIWKYNSDAQTYVLESTLEGHSDWVRDVAWSPTVLLRSYLASVSQDRTCIIWTQDNEQGPWKKTLLKEEKFPDVLWRASWSLSGNVLALSGGDNKVTLWKENLEGKWEPAGEVHQ
chain 2: MVKLAEFSRTATFAWSHDKIPLLVSGTVSGTVDANFSTDSSLELWSLLAADSEKPIASLQVDSKFNDLDWSHNNKIIAGALDNGSLELYSTNEANNAINSMARFSNHSSSVKTVKFNAKQDNVLASGGNNGEIFIWDMNKCTESPSNYTPLTPGQSMSSVDEVISLAWNQSLAHVFASAGSSNFASIWDLKAKKEVIHLSYTSPNSGIKQQLSVVEWHPKNSTRVATATGSDNDPSILIWDLRNANTPLQTLNQGHQKGILSLDWCHQDEHLLLSSGRDNTVLLWNPESAEQLSQFPARGNWCFKTKFAPEAPDLFACASFDNKIEVQTLQNLTNTLDEQETETKQQESETDFWNNVSREESKEKPTVFHLQAPTWYGEPSPAAHWAFGGKLVQITPDGKGVSITNPKISGLESNTTLSEALKTKDFKPLINQRLVKVIDDVNEEDWNLLEKLSMDGTEEFLKEALAFDNDESDAQDDANNEKEDDGEEFFQQIETNFQPEGDFSLSGNIEQTISKNLVSGNIKSAVKNSLENDLLMEAMVIALDSNNERLKESVKNAYFAKYGSKSSLSRILYSISKREVDDLVENLDVSQWKFISKAIQNLYPNDIAQRNEMLIKLGDRLKENGHRQDSLTLYLAAGSLDKVASIWLSEFPDLEDKLKKDNKTIYEAHSECLTEFIERFTVFSNFINGSSTINNEQLIAKFLEFINLTTSTGNFELATEFLNSLPSDNEEVKTEKARVLIASGKSLPAQNPATATTSKAKYTNAKTNKNVPVLPTPGMPSTTSIPSMQAPFYGMTPGASANALPPKPYVPATTTSAPVHTEGKYAPPSQPSMASPFVNKTNSSTRLNSFAPPPNPYATATVPATNVSTTSIPQNTFAPIQPGMPIMGDYNAQSSSIPSQPPINAVSGQTPHLNRKANDGWNDLPLKVKEKPSRAKAVSVAPPNILSTPTPLNGIPANAASTMPPPPLSRAPSSVSMVSPPPLHKNSRVPSLVATSESPRASISNPYAPPQSSQQFPIGTISTANQTSNTAQVASSNPYAPPPQQRVATPLSGGVPPAPLPKASNPYAPTATTQPNGSSYPPTGPYTNNHTMTSPPPVFNKPPTGPPPISMKKRSNKLASIEQNPSQGATYPPTLSSSASPLQPSQPPTLASQVNTSAENVSHEIPADQQPIVDFLKEELARVTPLTPKEYSKQLKDCDKRLKILFYHLEKQDLLTQPTIDCLHDLVALMKEKKYKEAMVIHANIATNHAQEGGNWLTGVKRLIGIAEATLN
notes: Sec13p, COPII outer coat subunit, S. cerevisiae; Sec31p, COPII outer coat subunit, S. cerevisiae; also called outer COPII coat; source: purified
B3: GST-Pef1p (natural protein, S. cerevisiae, UniProt P53238 1-335, looked up)
chain: MCAKKLKYAAGDDFVRYATPKEAMEETRREFEKEKQRQQQIKVTQAQTPNTRVHSAPIPLQTQYNKNRAENGHHSYGSPQSYSPRHTKTPVDPRYNVIAQKPAGRPIPPAPTHYNNLNTSAQRIASSPPPLIHNQAVPAQLLKKVAPASFDSREDVRDMQVATQLFHNHDVKGKNRLTAEELQNLLQNDDNSHFCISSVDALINLFGASRFGTVNQAEFIALYKRVKSWRKVYVDNDINGSLTISVSEFHNSLQELGYLIPFEVSEKTFDQYAEFINRNGTGKELKFDKFVEALVWLMRLTKLFRKFDTNQEGIATIQYKDFIDATLYLGRFLPH
notes: No removal of GST is described; also called N-terminally GST-fused Pef1p; pMY3; source: E. coli JM109, purified (glutathione-Sepharose, eluted with 10 mM glutathione); not shown: GST, N-terminal, kept

Conditions in all cases: both partners purified
Test [1] addresses B3. In words: pull-down; GST-Pef1p or GST (40 nM) and MBP-Sec31p fragment (80 nM), glutathione-Sepharose beads, 4°C 2 h, 20 mM HEPES-KOH pH 8.0, 160 mM potassium acetate, 0.1% Triton X-100; CaCl2 or EGTA not told for this experiment; immunoblot with anti-MBP. A general note: A western blot detects proteins with antibodies after separation by electrophoresis.
Test [2] concerns the target T1, Sec23/24p complex (S. cerevisiae, UniProt P15303 1-768; P40482 1-926).
T1 construct: Sec23p, COPII inner coat subunit, GAP for Sar1p, S. cerevisiae; Sec24p, COPII inner coat subunit, S. cerevisiae; also called inner COPII coat
In words: light scattering of liposomes; liposomes (100 µg/mL) preloaded with Sar1p (950 nM) and GMP-PNP (0.1 mM); Sec23/24p (160 nM), then Sec13/31p (260 nM) added; 350 nm, 25°C, 20 mM HEPES-KOH pH 6.8, 160 mM potassium acetate, 1 mM MgCl2; 5 mM EGTA in panel A, none in panel B; with or without GST-Pef1p or its mutant (520 nM).

In test [3] the target is B2. In words: pull-down; GST fusion or GST (40 nM) and Sec13/31p (80 nM) with 5 mM EGTA, glutathione-Sepharose beads, 4°C 2 h, 20 mM HEPES-KOH pH 8.0, 160 mM potassium acetate, 0.1% Triton X-100; immunoblot with anti-Sec31p.

T1 sequence (P15303 whole entry, chain 1 of 2): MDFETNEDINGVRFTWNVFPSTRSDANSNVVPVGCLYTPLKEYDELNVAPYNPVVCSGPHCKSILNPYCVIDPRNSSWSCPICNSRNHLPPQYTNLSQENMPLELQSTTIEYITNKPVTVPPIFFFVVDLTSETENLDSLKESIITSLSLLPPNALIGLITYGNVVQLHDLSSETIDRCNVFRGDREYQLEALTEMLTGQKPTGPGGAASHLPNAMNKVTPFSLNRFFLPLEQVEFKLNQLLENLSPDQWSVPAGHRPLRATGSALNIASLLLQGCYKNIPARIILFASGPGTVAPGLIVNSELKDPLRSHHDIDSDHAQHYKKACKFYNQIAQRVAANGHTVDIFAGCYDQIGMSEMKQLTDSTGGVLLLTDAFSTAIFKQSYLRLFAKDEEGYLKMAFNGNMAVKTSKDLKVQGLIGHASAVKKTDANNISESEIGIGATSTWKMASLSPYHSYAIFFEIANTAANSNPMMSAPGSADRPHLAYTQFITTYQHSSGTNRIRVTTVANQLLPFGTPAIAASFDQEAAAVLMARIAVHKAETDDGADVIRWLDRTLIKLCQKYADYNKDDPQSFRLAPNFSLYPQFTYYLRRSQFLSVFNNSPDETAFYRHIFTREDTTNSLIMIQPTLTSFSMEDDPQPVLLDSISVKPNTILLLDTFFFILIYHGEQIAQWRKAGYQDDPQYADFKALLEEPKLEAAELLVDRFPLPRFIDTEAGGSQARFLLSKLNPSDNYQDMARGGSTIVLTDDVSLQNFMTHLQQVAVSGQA
T1 sequence (P40482 whole entry, chain 2 of 2): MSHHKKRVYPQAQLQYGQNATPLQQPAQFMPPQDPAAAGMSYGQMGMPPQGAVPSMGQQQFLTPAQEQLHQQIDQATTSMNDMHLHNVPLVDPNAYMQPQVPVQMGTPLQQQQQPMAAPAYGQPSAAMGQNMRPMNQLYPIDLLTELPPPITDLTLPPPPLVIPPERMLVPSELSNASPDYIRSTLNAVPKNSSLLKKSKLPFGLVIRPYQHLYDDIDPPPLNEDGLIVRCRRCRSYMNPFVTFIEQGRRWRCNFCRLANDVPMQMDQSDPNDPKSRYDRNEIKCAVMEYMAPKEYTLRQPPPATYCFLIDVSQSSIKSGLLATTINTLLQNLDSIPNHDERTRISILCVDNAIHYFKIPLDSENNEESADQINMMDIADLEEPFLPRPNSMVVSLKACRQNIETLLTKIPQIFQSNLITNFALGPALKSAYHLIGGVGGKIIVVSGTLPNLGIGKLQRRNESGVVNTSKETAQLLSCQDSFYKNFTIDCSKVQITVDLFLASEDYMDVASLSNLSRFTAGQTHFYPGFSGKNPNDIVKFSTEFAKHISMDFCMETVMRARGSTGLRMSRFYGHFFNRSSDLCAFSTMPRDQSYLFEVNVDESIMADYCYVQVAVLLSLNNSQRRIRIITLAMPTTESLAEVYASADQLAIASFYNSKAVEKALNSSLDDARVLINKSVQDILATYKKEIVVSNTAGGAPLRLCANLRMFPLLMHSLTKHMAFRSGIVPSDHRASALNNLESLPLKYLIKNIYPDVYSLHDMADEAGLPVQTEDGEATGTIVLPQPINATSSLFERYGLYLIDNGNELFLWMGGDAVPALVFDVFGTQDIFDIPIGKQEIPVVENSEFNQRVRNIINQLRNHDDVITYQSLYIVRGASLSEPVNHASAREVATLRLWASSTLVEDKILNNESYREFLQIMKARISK

B1: MBP-Sec31(879–1114) (domain or fragment, S. cerevisiae, UniProt P38968 879-1114, looked up)
chain: APIQPGMPIMGDYNAQSSSIPSQPPINAVSGQTPHLNRKANDGWNDLPLKVKEKPSRAKAVSVAPPNILSTPTPLNGIPANAASTMPPPPLSRAPSSVSMVSPPPLHKNSRVPSLVATSESPRASISNPYAPPQSSQQFPIGTISTANQTSNTAQVASSNPYAPPPQQRVATPLSGGVPPAPLPKASNPYAPTATTQPNGSSYPPTGPYTNNHTMTSPPPVFNKPPTGPPPISMKK
notes: also called proline-rich region of Sec31p; pMY12; source: E. coli C41(DE3), purified (amylose resin, eluted with 30 mM maltose)
Consider B1, for which, in test [1], the binding result is “binds”.
With B2, in test [2], the binding result is on record as “binds”.
In the case of B3, the binding result in test [3] is reported as “binds”.

B4: GST-Pef1p-E180/181/248A (natural protein, S. cerevisiae, UniProt P53238 1-335, looked up)
chain: MCAKKLKYAAGDDFVRYATPKEAMEETRREFEKEKQRQQQIKVTQAQTPNTRVHSAPIPLQTQYNKNRAENGHHSYGSPQSYSPRHTKTPVDPRYNVIAQKPAGRPIPPAPTHYNNLNTSAQRIASSPPPLIHNQAVPAQLLKKVAPASFDSREDVRDMQVATQLFHNHDVKGKNRLTAAALQNLLQNDDNSHFCISSVDALINLFGASRFGTVNQAEFIALYKRVKSWRKVYVDNDINGSLTISVSAFHNSLQELGYLIPFEVSEKTFDQYAEFINRNGTGKELKFDKFVEALVWLMRLTKLFRKFDTNQEGIATIQYKDFIDATLYLGRFLPH
notes: also called pMY14; source: E. coli JM109, purified (glutathione-Sepharose, eluted with 10 mM glutathione); not shown: GST, N-terminal, kept
Turning to B4, in test [3], the binding result is given as “binds”.
